Laboratory results: a protein production outcome set (Wang et al. 2014)

Assay: label from the status in PepcDB records
With “MKTLLSRSTAVPAKLLAATAITATLSAPAFSADANVESLVKAAQKEGSIYSVGMPDSWANWKDTWADLQSNYGLKHQDTDMSSAQEIAKFEAEKKNATADIGDVGFAFARVAVKKGVTQPYKPTTWNDIPDWAKDKDGHWALAYTGTISFISNNNLVKDAPKTWGDLLKGDYKVTVGDVGVAAQANNAVLAAAFANGGDESNLKPAIKFFAELAKQGRLSFTDPNIANLEKGEVEVAIMWDFNALNYRDKIDRERFTVTIPQDGSVISGYTTIINKYAKNPNAAKLAREYIFSDQGQINLAEGYARPIRTSITLPKSVQDKLIANDQYSNVHPVTDFSAWEKSARKLPRQWQESVLIHQQ” the protein production was “failed”. For “MKTLVDHLSQYANYHRDPRNIATHFVGIPMIVLAVTILLSRPGWEIAGMWLSPALLAAAASVWFYLRLDLRFGLVMGLLLGLCLWVGEALAVQSTTLWLGAGLGAFVVGWIIQFIGHYYEGRKPAFVDDVSGLIIGPLFVVAEAAFMLGLCPTLKRAVEANAGPIAMRQKKASV”, the protein production was “failed”. For “MKTLVHLSDLHFGKTESHLVDAIAAEVRAVDSDLLVVSGDLTQRARKDEFLQARAFLDSLPGPRIVVPGNHDVPLWNVFARAMTPLSRYRRYIEADTDPFYADSEVAVVGINTARSLTIKNGRINVRQLKAATEKFAYMSDDITRIVVTHHPFEGLDLESDDGIVARADLAMDAFSRSGVDIILSGHQHLHRAGSSARRYLIDGYAALLVQAGTAVSSRVRQAANSFNIIRIEHPRISIECRAWQSLQSGFETSASYSFRQGSGGWEPALEHHHHHH”, the protein production was “failed”. With “MKTLVIVAHPNLETSVVHKRWVEELKKYPEKYTVHELSDVYPDGNIDAEKEQKLVESHGNLVLQFPIYWFNCPPLLKKWLDDVLAYGWAYGSNGGDRLNNRKVALGVSAGIKEEDYRENGRYRYTLEQILVPFETTFRYCRADYRSFFAFYGKEKEPGGNEEEENEPGAGELEKSARDYLHFIDHM” the protein production was “failed”. For “MKTREEKMNKTILLLACLLGLVACSSQYIMSTKDGKMITSDSKPKLDKTTGMYLYYDEDGREVMIKQEDVTQIIERLEHHHHHH”, the protein production was “not failed”. In the case of “MKTRLMEAWKAHRSVMVQMPTGTGKTHLLASVVSEFVSSAGSGVWLIAHRRELVAQMEETLAKYGIRREDTPVRVMSVQWLSRHWNEAGDAPGLIVIDEAHHALAASYTEMWKRYPAAKKLGVTATPCRLNRRGFTELFEVLVTSWSIAEFIEKGVLSVFDYVSIRPGSEERRLIDGLEKRGADGDYQVKEMDAVLNRRPGIERLYRSVRQFASGKKGMVYAISIEHARRIAEYYSRRGVNAVAVDSKTPAMERKRMVEEFRHGKIEVLVNVDVFSEGFDCPDVEFVQLARPTLSLAKYLQQVGRGLRRSEGKEACMLIDNVGLYRIFGLPTQRWNWDAMFRGRMAGKGSLPGRMNCDASVTAFPVVERPAEAGGDLVVVMEHGRLLSSIREQALPDEKEQSPSCRLRAFVDKETGLWGLEKGDEMLPDASFKEVLSIKGRFAVGRLRNGCVRVLDDTGALVAEPGHCREVRFLKDDLLQVRHAGNSVSYVDLRNGRCYSVRPRVLRYGSIELLQANRTYYSRTRQVYANTCGLPSSSIVWMGFYVKMYDGRVPSRCRRMEDGGFCCEPQVCLLEGDEERAYYLSGRLPDQSIVVMDEEGRYYHVEKGHGKRYVACLEHHHHHH”, the protein production is reported as “failed”. In the case of “MKTRSSDAEGDSRGKMIAPVGEGNGGRKRKLVQSNEQKNDIQREEDGRAKRRIVQSSDQKNGKILRGIRGCVSPRCSAQTYQSRFSWYEQDIWTYISRFLDGKSLVKLGATNKWFYKIAMEDTVWRFACLRDLQVPVPFPVSSTWIKIYASAFDGSHSYLFRQKEKHIGAFVLDSRTSLLTESLSGRLKFPREGTIERMLQSSGSCLINDIKSGIWIADLQLVRCPVCDLSTCDGTMQTLDARHIELFLSEGYKDGSWDYNLIGSHKLQKNASAACGAIFDLKHLKESSYSGILNLKSWTGESNDSQPKAVIAPHAVAVHTRLQENEGILVKYHTMKAGTDGDIVSIRISQQLL”, the protein production is reported as “failed”. In the case of “MKTSRSSIGKSIFLAATMLATGSAAWAGQAPGALSSPDIPISHHDRVYAAEQFSNTVSVTDPVDNKLLGVIRLGDPQPGNFSPLYKGQVLVHGMGFSPDHKMLAVVSIGSNSVTFIDTATNAVKHTTYIGRSPHEAFFTPDGKEVWVTVRGENYISVIDPQSFEERRRITTPSGPGMQMFSPDGKYAYICSSFNPETDVVAVAEHKIIAKVKQESPFCPNIAVTPDGNQVWFTLKDTGRTQVFNARPPFNPIRTIDTGPITNHVNFAHTARGTFAYVTIGGLNQVKVFRTDDFSQVATIPVGNLPHGVWPSGDGTRIYVGLENADALAAIDTATNSVVANVPIGQAPQAIAYVPGAAPNPDDRQNLQALGVAGQFAHLALASRDGSKDGKAPTSVSLFDQGLIQILQASVTGLEPRQKYVLALAEHGDGSGTLQPLAAFMTNPAGSAIVNAAGPIRQIVDQSAAAARRYLVIASGDVAMPGEAVQIEAQ”, the protein production is reported as “failed”.
